Results as given in patent US20150203577A1 (Chugai, published 2015).
Changes are numbered by the printed parent chain. Names may count otherwise.

B1: H237-MB545/MRAL-k0 (antibody, mouse IgG1, kappa)
heavy: QVQLQESGPGLVKPSETLSLTCAVSGHSISHDHAWSWVRQPPGEGLEWIGFISYSGITNYNPSLQGRVTISRDNSKNTLYLQMNSLRAEDTAVYYCARSLARTTAMDYWGEGTLVTVSSAKTTPPSVYPLAPGSAAQTNSMVTLGCLVKGYFPEPVTVTWNSGSLSSGVHTFPAVLQSDLYTLSSSVTVPSSTWPSETVTCNVAHPASSTKVDKKIVPRDCGCKPCICEPNEVEMVFIFPPKPKDVLTITLTPKVTCVVVDISKDDPEVQFSWFVDDVEVHTAQTQPREEQFNLTFRSVSELPIMHQDWLNGKEFKCRVDSDAFPAPIEKTISKTKGRPKAPQVYTIPPPKEQMAKDKVSLTCMITDFFPEDITVEWQWNGQPAENYKNTQPIMDTDGSYFVYSKLNVQKSNWEAGNTFTCSVLHEGLHNHHTEKSLSHSPGK
light: not shown
notes: copies: 2 + 2
B2: H237-MB780/MRAL-k0 (antibody, mouse IgG1, kappa)
heavy: B1 heavy with M235L, L294S, D320N, D322A, A323G
light: not shown
notes: copies: 2 + 2
B3: H237-MB630/MRAL-k0 (antibody, mouse IgG1, kappa)
heavy: B1 heavy with M235L, L294S, D320N, D322A
light: not shown
notes: copies: 2 + 2
B4: H237-MB756/MRAL-k0 (antibody, mouse IgG1, kappa)
heavy: B1 heavy with M235L, D320N, D322A, K330R
light: not shown
notes: copies: 2 + 2
B5: H237-MB785/MRAL-k0 (antibody, mouse IgG1, kappa)
heavy: B1 heavy with M235L, L294S
light: not shown
notes: copies: 2 + 2
B6: H237-MB790/MRAL-k0 (antibody, mouse IgG1, kappa)
heavy: B1 heavy with M235L, L294S, K330R
light: not shown
notes: copies: 2 + 2
B7: H237-MB779/MRAL-k0 (antibody, mouse IgG1, kappa)
heavy: B1 heavy with M235L, L294S, D320N, D322A, S333W
light: not shown
notes: copies: 2 + 2
B8: H237-MB784/MRAL-k0 (antibody, mouse IgG1, kappa)
heavy: B1 heavy with M235L, Q291L, L294S, D320N, D322A, K330R
light: not shown
notes: copies: 2 + 2
B9: H237-MB748/MRAL-k0 (antibody, mouse IgG1, kappa)
heavy: B1 heavy with M235L, S263A, L294S, D320N, D322A
light: not shown
notes: copies: 2 + 2
B10: H237-MB710/MRAL-k0 (antibody)
heavy: B1 heavy with N231A, M235Q, L294S, D320N, D322A
light: not shown
notes: T0025 prints T230E/V231P/P232N/S238E/S239Q for MB710; EU numbering; copies: 2 + 2
B11: H237-MB549/MRAL-k0 (antibody, mouse IgG1, kappa)
heavy: B1 heavy with K330R
light: not shown
notes: copies: 2 + 2
B12: H237-MB766/MRAL-k0 (antibody, mouse IgG1, kappa)
heavy: B1 heavy with M235L, L294S, D320M, D322A
light: not shown
notes: copies: 2 + 2
B13: H237-MB786/MRAL-k0 (antibody, mouse IgG1, kappa)
heavy: B1 heavy with M235L, L294S, D320N, K330R
light: not shown
notes: copies: 2 + 2
B14: H237-MB754/MRAL-k0 (antibody, mouse IgG1, kappa)
heavy: B1 heavy with M235L, L294S, D322A
light: not shown
notes: copies: 2 + 2
B15: H237-MB547/MRAL-k0 (antibody, mouse IgG1, kappa)
heavy: B1 heavy with D320N, K330R
light: not shown
notes: copies: 2 + 2
B16: H237-MB751/MRAL-k0 (antibody, mouse IgG1, kappa)
heavy: B1 heavy with M235L, L294S, D320N, D322A, K330R
light: not shown
notes: copies: 2 + 2
B17: H237-MB787/MRAL-k0 (antibody, mouse IgG1, kappa)
heavy: B1 heavy with M235L, Q291L, L294S
light: not shown
notes: copies: 2 + 2
B18: H237-MB776/MRAL-k0 (antibody, mouse IgG1, kappa)
heavy: B1 heavy with M235L, L294S, D320N, D322A, T331Y
light: not shown
notes: copies: 2 + 2
B19: H237-MB773/MRAL-k0 (antibody, mouse IgG1, kappa)
heavy: B1 heavy with M235L, L294S, D320N, D322A, E329Y
light: not shown
notes: copies: 2 + 2
B20: H237-MB782/MRAL-k0 (antibody, mouse IgG1, kappa)
heavy: B1 heavy with M235L, Q291L, L294S, D322A
light: not shown
notes: copies: 2 + 2
B21: H237-MB788/MRAL-k0 (antibody, mouse IgG1, kappa)
heavy: B1 heavy with M235L, Q291L, L294S, D322A, K330R
light: not shown
notes: copies: 2 + 2
B22: H237-MB789/MRAL-k0 (antibody, mouse IgG1, kappa)
heavy: B1 heavy with M235L, Q291L, L294S, D320N, K330R
light: not shown
notes: copies: 2 + 2
B23: H237-MB759/MRAL-k0 (antibody, mouse IgG1, kappa)
heavy: B1 heavy with M235L, L294S, D322A, K330R
light: not shown
notes: copies: 2 + 2
B24: H237-MB749/MRAL-k0 (antibody, mouse IgG1, kappa)
heavy: B1 heavy with M235L, Q291L, L294S, D320N, D322A
light: not shown
notes: copies: 2 + 2
B25: H237-MB771/MRAL-k0 (antibody, mouse IgG1, kappa)
heavy: B1 heavy with M235L, L294S, D320N, D322A, P327Y
light: not shown
notes: copies: 2 + 2
B26: H237-MB761/MRAL-k0 (antibody, mouse IgG1, kappa)
heavy: B1 heavy with M235L, L294M, D322A, K330R
light: not shown
notes: copies: 2 + 2
B27: H237-MB760/MRAL-k0 (antibody, mouse IgG1, kappa)
heavy: B1 heavy with M235L, D322A, K330R
light: not shown
notes: copies: 2 + 2
B28: H237-MB770/MRAL-k0 (antibody, mouse IgG1, kappa)
heavy: B1 heavy with M235L, L294S, D320N, D322A, P327F
light: not shown
notes: copies: 2 + 2
B29: H237-MB548/MRAL-k0 (antibody, mouse IgG1, kappa)
heavy: B1 heavy with L294S, K330R
light: not shown
notes: copies: 2 + 2
B30: H237-MB783/MRAL-k0 (antibody, mouse IgG1, kappa)
heavy: B1 heavy with M235L, Q291L, L294S, D320N
light: not shown
notes: copies: 2 + 2

Target: T1, mouse FcγRII extracellular domain, C-terminal His tag (mouse, UniProt P08101 30-210)
T1 construct: also called mFcγRII; mFcgRII
T1 sequence: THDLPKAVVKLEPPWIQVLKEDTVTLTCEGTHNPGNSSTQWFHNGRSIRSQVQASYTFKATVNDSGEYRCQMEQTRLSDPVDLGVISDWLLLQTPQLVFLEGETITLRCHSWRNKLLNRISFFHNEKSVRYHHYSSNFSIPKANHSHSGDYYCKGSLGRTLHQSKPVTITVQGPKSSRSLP
Experiment: SPR (Biacore T200), antibody captured on Protein L, mFcγR analyte
Description: (§1) Each altered antibody was analyzed for its interaction with each Fcγ receptor prepared above using Biacore T100 (GE Healthcare Japan Corp.), Biacore T200 (GE Healthcare Japan Corp.), Biacore A100, or Biacore 4000. The running buffer used was HBS-EP+ (GE Healthcare Japan Corp.). The assay temperature was set to 25° C. The sensor chips used were chips prepared by immobilizing Protein L (ACTIGEN or BioVision) onto Series S Sensor Chip CM5 (GE Healthcare Japan Corp.) or Series S Sensor Chip CM4 (GE Healthcare Japan Corp.) by the amine coupling method.
(§2) In order to calculate the KD value of each altered antibody for FcγR, kinetic analysis was conducted according to the following method: first, the antibody of interest was captured onto any of these chips and allowed to interact with mFcγR diluted with a running buffer. For the obtained sensorgram, the assay results were globally fit into the 1:1 Langmuir binding model using Biacore Evaluation Software to calculate an association rate constant ka (L/mol/s) and a dissociation rate constant kd (1/s). From these values, the dissociation constant KD (mol/L) was calculated.

Binder	Kd	relative mFcγRII-binding activity (mIgG1 = 1)
B1	1.29 nM	163 fold vs H237-mIgG1/MRAL-k0
B2	10.4 nM	20.2 fold vs H237-mIgG1/MRAL-k0
B3	14.7 nM	14.3 fold vs H237-mIgG1/MRAL-k0
B4	19.8 nM	10.6 fold vs H237-mIgG1/MRAL-k0
B5	8.43 nM	24.9 fold vs H237-mIgG1/MRAL-k0
B6	6.28 nM	33.5 fold vs H237-mIgG1/MRAL-k0
B7	21 nM	10 fold vs H237-mIgG1/MRAL-k0
B8	14.3 nM	14.7 fold vs H237-mIgG1/MRAL-k0
B9	17.9 nM	11.7 fold vs H237-mIgG1/MRAL-k0
B10	4.13 nM	50.8 fold vs H237-mIgG1/MRAL-k0
B11	1 nM	210 fold vs H237-mIgG1/MRAL-k0
B12	15 nM	14 fold vs H237-mIgG1/MRAL-k0
B13	7.73 nM	27.2 fold vs H237-mIgG1/MRAL-k0
B14	10 nM	21 fold vs H237-mIgG1/MRAL-k0
B15	1.23 nM	170 fold vs H237-mIgG1/MRAL-k0
B16	8.25 nM	25.4 fold vs H237-mIgG1/MRAL-k0
B17	5.45 nM	38.5 fold vs H237-mIgG1/MRAL-k0
B18	18.6 nM	11.3 fold vs H237-mIgG1/MRAL-k0
B19	16.5 nM	12.7 fold vs H237-mIgG1/MRAL-k0
B20	9.88 nM	21.3 fold vs H237-mIgG1/MRAL-k0
B21	9.38 nM	22.4 fold vs H237-mIgG1/MRAL-k0
B22	6.8 nM	30.9 fold vs H237-mIgG1/MRAL-k0
B23	6.21 nM	33.8 fold vs H237-mIgG1/MRAL-k0
B24	8.3 nM	25.3 fold vs H237-mIgG1/MRAL-k0
B25	15.2 nM	13.8 fold vs H237-mIgG1/MRAL-k0
B26	15.7 nM	13.4 fold vs H237-mIgG1/MRAL-k0
B27	14.9 nM	14.1 fold vs H237-mIgG1/MRAL-k0
B28	15.7 nM	13.3 fold vs H237-mIgG1/MRAL-k0
B29	0.589 nM	357 fold vs H237-mIgG1/MRAL-k0
B30	6.85 nM	30.6 fold vs H237-mIgG1/MRAL-k0

Target: T2, mouse FcγRIII extracellular domain, C-terminal His tag (mouse, UniProt P08508 31-215)
T2 construct: also called mFcγRIII; mFcgRIII
T2 chain: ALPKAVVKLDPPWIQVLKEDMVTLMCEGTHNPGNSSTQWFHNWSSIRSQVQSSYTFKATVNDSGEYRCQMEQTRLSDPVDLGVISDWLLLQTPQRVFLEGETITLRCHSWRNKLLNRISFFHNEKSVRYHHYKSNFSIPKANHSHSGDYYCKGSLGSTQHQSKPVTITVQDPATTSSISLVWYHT
Experiment: as above
Description: as §1, §2

Binder	Kd	relative mFcγRIII-binding activity (mIgG1 = 1)
B1	106 nM	2.7 fold vs H237-mIgG1/MRAL-k0
B2	716 nM	0.4 fold vs H237-mIgG1/MRAL-k0
B3	1120 nM	0.3 fold vs H237-mIgG1/MRAL-k0
B4	1330 nM	0.2 fold vs H237-mIgG1/MRAL-k0
B5	577 nM	0.5 fold vs H237-mIgG1/MRAL-k0
B6	402 nM	0.7 fold vs H237-mIgG1/MRAL-k0
B7	1610 nM	0.2 fold vs H237-mIgG1/MRAL-k0
B8	734 nM	0.4 fold vs H237-mIgG1/MRAL-k0
B9	2060 nM	0.1 fold vs H237-mIgG1/MRAL-k0
B10	232 nM	1.2 fold vs H237-mIgG1/MRAL-k0
B11	52.1 nM	5.4 fold vs H237-mIgG1/MRAL-k0
B12	1060 nM	0.3 fold vs H237-mIgG1/MRAL-k0
B13	493 nM	0.6 fold vs H237-mIgG1/MRAL-k0
B14	1130 nM	0.2 fold vs H237-mIgG1/MRAL-k0
B15	62.3 nM	4.5 fold vs H237-mIgG1/MRAL-k0
B16	890 nM	0.3 fold vs H237-mIgG1/MRAL-k0
B17	295 nM	1 fold vs H237-mIgG1/MRAL-k0
B18	1430 nM	0.2 fold vs H237-mIgG1/MRAL-k0
B19	1310 nM	0.2 fold vs H237-mIgG1/MRAL-k0
B20	567 nM	0.5 fold vs H237-mIgG1/MRAL-k0
B21	475 nM	0.6 fold vs H237-mIgG1/MRAL-k0
B22	343 nM	0.8 fold vs H237-mIgG1/MRAL-k0
B23	646 nM	0.4 fold vs H237-mIgG1/MRAL-k0
B24	740 nM	0.4 fold vs H237-mIgG1/MRAL-k0
B25	1070 nM	0.3 fold vs H237-mIgG1/MRAL-k0
B26	1570 nM	0.2 fold vs H237-mIgG1/MRAL-k0
B27	1020 nM	0.3 fold vs H237-mIgG1/MRAL-k0
B28	1170 nM	0.2 fold vs H237-mIgG1/MRAL-k0
B29	71.7 nM	3.9 fold vs H237-mIgG1/MRAL-k0
B30	378 nM	0.7 fold vs H237-mIgG1/MRAL-k0
